One block for each molecule: values may come before it.
Key:
calcitonin receptor [1] = target: T1, calcitonin receptor (Homo sapiens, UniProt P30988); experiment: Live cell cAMP accumulation (GloSensor), UMR-106 cells transfected with calcitonin receptor; assay type: cell-based; parameters: host or cells: UMR-106 (rat osteoblast-like) in A1; COS-7 (African monkey kidney) in A3; details: calcitonin + vehicle, Fig. 1B, fraction of greatest slope, best-fit ± SEM, n = 3
T1 sequence (P30988 25-474): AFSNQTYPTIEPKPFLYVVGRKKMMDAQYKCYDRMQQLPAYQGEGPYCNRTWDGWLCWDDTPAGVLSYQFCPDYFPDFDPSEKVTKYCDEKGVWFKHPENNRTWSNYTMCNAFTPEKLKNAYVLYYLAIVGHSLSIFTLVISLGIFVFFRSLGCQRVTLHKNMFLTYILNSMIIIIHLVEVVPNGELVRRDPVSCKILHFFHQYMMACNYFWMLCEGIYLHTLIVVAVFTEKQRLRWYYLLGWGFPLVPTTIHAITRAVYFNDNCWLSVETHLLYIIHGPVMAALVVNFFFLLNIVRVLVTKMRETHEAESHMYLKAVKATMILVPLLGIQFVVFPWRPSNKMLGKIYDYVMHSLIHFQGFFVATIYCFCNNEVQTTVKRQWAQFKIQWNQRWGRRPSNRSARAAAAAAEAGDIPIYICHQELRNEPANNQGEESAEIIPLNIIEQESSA

calcitonin receptor [2] = target: T1, calcitonin receptor; experiment: Live cell cAMP accumulation (GloSensor), COS-7 cells transfected with calcitonin receptor; assay type: cell-based; parameters: host or cells: COS-7 (African monkey kidney) in A3; details: calcitonin + vehicle, Fig. 1F, fraction of greatest slope, ± SEM, n = 3
calcitonin receptor [3] = target: T1, calcitonin receptor; experiment: Live cell cAMP accumulation (GloSensor), MCF-7 cells with endogenous calcitonin receptor; assay type: cell-based; parameters: COS-7 (African monkey kidney) in A3; details: calcitonin + vehicle, Fig. 1D, fraction of greatest slope, ± SEM, n = 3
calcitonin receptor [4] = target: calcitonin receptor (UniProt P30988)
[5] = target: calcitonin receptor, endogenous in MCF-7 cells (human (endogenous in MCF-7)) (UniProt P30988)
[6] = target: T2, vasoactive intestinal polypeptide receptor 2 (UniProt P41587)
T2 sequence: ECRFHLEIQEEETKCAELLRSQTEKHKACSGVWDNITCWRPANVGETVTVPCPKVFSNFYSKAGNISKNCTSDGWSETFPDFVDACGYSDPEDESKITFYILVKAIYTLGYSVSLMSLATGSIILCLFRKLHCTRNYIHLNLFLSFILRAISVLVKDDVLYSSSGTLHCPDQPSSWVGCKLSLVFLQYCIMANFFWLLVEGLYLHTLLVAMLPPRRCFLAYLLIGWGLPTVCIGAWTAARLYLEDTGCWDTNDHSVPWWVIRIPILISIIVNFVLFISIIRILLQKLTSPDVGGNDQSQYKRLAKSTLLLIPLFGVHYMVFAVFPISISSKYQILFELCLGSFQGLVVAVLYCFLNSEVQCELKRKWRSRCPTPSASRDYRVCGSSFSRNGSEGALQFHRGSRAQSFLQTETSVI

[7] = target: T3, vasoactive intestinal polypeptide receptor 1 (UniProt P32241)
T3 sequence: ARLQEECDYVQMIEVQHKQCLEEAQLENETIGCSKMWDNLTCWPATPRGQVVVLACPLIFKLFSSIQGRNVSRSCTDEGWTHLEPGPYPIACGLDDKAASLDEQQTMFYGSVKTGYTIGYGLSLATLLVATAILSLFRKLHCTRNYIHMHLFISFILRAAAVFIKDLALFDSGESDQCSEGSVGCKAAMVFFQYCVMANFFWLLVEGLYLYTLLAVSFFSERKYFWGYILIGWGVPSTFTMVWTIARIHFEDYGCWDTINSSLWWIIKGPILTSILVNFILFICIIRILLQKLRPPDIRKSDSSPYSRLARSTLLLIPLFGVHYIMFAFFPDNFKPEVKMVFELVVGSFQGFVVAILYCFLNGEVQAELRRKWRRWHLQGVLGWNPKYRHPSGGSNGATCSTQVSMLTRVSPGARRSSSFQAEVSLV

[8] = target: T4, VPAC1R, endogenous in SaOS-2 cells (human (endogenous in SaOS-2)) (UniProt P32241)
T4 sequence: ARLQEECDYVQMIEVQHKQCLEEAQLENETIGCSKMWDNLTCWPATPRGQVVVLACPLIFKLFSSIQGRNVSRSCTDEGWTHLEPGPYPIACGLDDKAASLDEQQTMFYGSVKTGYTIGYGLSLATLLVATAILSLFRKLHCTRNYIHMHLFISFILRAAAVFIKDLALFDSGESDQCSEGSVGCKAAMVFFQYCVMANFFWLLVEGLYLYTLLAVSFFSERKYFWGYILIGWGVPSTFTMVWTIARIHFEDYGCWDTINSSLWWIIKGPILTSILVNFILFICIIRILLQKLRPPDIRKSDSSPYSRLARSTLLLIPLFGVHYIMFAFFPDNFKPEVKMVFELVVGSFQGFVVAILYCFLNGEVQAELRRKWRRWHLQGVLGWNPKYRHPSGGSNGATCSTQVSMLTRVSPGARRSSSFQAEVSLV

Molecule: CC(C)C[C@H](NC(=O)[C@H](CCCCN)NC(=O)CNC(=O)[C@H](CC(C)C)NC(=O)[C@@H](NC(=O)[C@@H]1CSSC[C@H](N)C(=O)N[C@@H](CO)C(=O)N[C@@H](CC(N)=O)C(=O)N[C@@H](CC(C)C)C(=O)N[C@@H](CO)C(=O)N[C@@H]([C@@H](C)O)C(=O)N1)C(C)C)C(=O)N[C@@H](CO)C(=O)N[C@@H](CCC(N)=O)C(=O)N[C@@H](CCC(=O)O)C(=O)N[C@@H](CC(C)C)C(=O)N[C@@H](Cc1c[nH]cn1)C(=O)N[C@@H](CCCCN)C(=O)N[C@@H](CC(C)C)C(=O)N[C@@H](CCC(N)=O)C(=O)N[C@H](C(=O)N[C@@H](Cc1ccc(O)cc1)C(=O)N1CCC[C@H]1C(=O)N[C@@H](CCCNC(=N)N)C(=O)N[C@H](C(=O)N[C@@H](CC(N)=O)C(=O)N[C@H](C(=O)NCC(=O)N[C@@H](CO)C(=O)NCC(=O)N[C@H](C(=O)N1CCC[C@H]1C(N)=O)[C@@H](C)O)[C@@H](C)O)[C@@H](C)O)[C@@H](C)O [calcitonin, Salmon calcitonin]
Normalized Maximum (calcitonin receptor [1]): 0.69 ± 0.04
Normalized Maximum (calcitonin receptor [2]): 0.69 ± 0.04
Normalized Maximum (calcitonin receptor [3]): 0.68 ± 0.05

−LogEC50 of calcitonin, maximum rate of cAMP accumulation (GloSensor), COS-7 cells transfected with calcitonin receptor, vehicle (Fig. 1F) (−LogEC50 (EC50 in M)) (calcitonin receptor [4]): 9.64
−LogEC50 of calcitonin, maximum rate of cAMP accumulation (GloSensor), COS-7 cells transfected with calcitonin receptor, with ATP 1.5 mM (Fig. 1F) (−LogEC50 (EC50 in M)) (calcitonin receptor [4]): 10.5
−LogEC50 of calcitonin, maximum rate of cAMP accumulation (GloSensor), UMR-106 cells transfected with calcitonin receptor, vehicle (Fig. 1B) (−LogEC50 (EC50 in M)) (calcitonin receptor [4]): 9.15
−LogEC50 of calcitonin, maximum rate of cAMP accumulation (GloSensor), UMR-106 cells transfected with calcitonin receptor, with ATP 1.5 mM (Fig. 1B) (−LogEC50 (EC50 in M)) (calcitonin receptor [4]): 10.3
−LogEC50 of calcitonin, maximum rate of cAMP accumulation (GloSensor), MCF-7 cells (endogenous calcitonin receptor), vehicle (Fig. 1D) (−LogEC50 (EC50 in M)) [5]: 8.19
−LogEC50 of calcitonin, maximum rate of cAMP accumulation (GloSensor), MCF-7 cells (endogenous calcitonin receptor), with ATP 1.5 mM (Fig. 1D) (−LogEC50 (EC50 in M)) [5]: 9.86
Molecule: Salmon calcitonin (peptide)

−LogEC50 of VIP, maximum rate of cAMP accumulation (GloSensor), COS-7 cells transfected with VPAC2R, vehicle (Fig. 6H) (−LogEC50 (EC50 in M)) [6]: 8.9
−LogEC50 of VIP, maximum rate of cAMP accumulation (GloSensor), COS-7 cells transfected with VPAC2R, with ATP 1.5 mM (Fig. 6H) (−LogEC50 (EC50 in M)) [6]: 9.42
−LogEC50 of VIP, maximum rate of cAMP accumulation (GloSensor), COS-7 cells transfected with VPAC1R, vehicle (Fig. 6E) (−LogEC50 (EC50 in M)) [7]: 9.56
−LogEC50 of VIP, maximum rate of cAMP accumulation (GloSensor), COS-7 cells transfected with VPAC1R, with ATP 1.5 mM (Fig. 6E) (−LogEC50 (EC50 in M)) [7]: 10.3
−LogEC50 of VIP, maximum rate of cAMP accumulation (GloSensor), SaOS-2 cells (endogenous VPAC1R), vehicle (Fig. 6K) (−LogEC50 (EC50 in M)) [8]: 8.35
−LogEC50 of VIP, maximum rate of cAMP accumulation (GloSensor), SaOS-2 cells (endogenous VPAC1R), with ATP 1.5 mM (Fig. 6K) (−LogEC50 (EC50 in M)) [8]: 9.24
Molecule: HSDAVFTDNYTRLRKQMAVKKYLNSILN [vasoactive intestinal peptide]
